The source of these data is paper PMC12618267, “GAGA zinc finger transcription factor searches chromatin by 1D–3D facilitated diffusion”.

Data set [1] relates to T1, HA-GAF-FL (Drosophila melanogaster), Q08605-2.
T1 sequence: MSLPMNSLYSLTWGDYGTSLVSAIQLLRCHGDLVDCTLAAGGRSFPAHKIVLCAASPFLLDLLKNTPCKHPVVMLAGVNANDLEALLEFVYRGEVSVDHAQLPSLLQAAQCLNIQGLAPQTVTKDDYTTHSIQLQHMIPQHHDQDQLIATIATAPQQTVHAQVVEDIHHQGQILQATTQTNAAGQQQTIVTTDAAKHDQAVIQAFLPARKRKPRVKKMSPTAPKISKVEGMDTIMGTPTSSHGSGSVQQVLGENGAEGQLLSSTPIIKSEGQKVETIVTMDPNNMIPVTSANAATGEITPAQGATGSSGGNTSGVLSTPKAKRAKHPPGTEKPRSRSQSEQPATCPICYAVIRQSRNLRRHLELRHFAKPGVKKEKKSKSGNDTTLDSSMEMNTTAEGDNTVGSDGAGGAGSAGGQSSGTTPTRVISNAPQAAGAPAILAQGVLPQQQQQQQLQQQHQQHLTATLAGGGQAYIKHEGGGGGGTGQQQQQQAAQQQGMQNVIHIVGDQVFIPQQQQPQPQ
Briefly: EMSA. Conditions: ~15 nM protein, 3 nM NCP; 12.5 mM HEPES-KOH pH 7.6, 0.05 mM EDTA, 6.25 mM MgCl2, 5% glycerol, 50 mM NaCl, 50 ug/ml BSA, 0.05% NP-40; EMSA at room temperature; smFRET adds dextrose ….

Data set [2] concerns T2, Cy3-GAF-DBD / GAF-DBD (Drosophila melanogaster), Q08605-2.
T2 sequence: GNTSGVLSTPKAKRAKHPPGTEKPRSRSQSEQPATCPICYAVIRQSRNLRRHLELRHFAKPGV
As to the kind of experiment: EMSA. The following applies: 3 nM DNA; 12.5 mM HEPES-KOH pH 7.6, 0.05 mM EDTA, 6.25 mM MgCl2, 5% glycerol, 50 mM NaCl, 50 ug/ml BSA, 0.05% NP-40; EMSA at room temperature; smFRET adds dextrose ….

Data set [3] shares this test system. Briefly: smFRET. The following applies: from koff/kon; dwell 3.1 s; 6.25 mM Mg2+; 12.5 mM HEPES-KOH pH 7.6, 0.05 mM EDTA, 6.25 mM MgCl2, 5% glycerol, 50 mM NaCl, 50 ug/ml BSA, 0.05% NP-40; EMSA at room temperature; smFRET adds dextrose ….
For data set [4], the target named is SNAP-tagged full-length GAGA factor (MBP–SNAP–GAF–6×His) (Drosophila melanogaster). As to the kind of experiment: mass photometry; Refeyn TwoMP; proteins free in solution; optical tweezers imaging buffer without NP-40; 10-min incubation before measuring; at concentrations similar to those of the optical tweezers experiments (80 nM GAF-FL, 25 nM GAF-ΔPOZ).
Data set [5] has as its target T3, HA-GAF-FL (Drosophila melanogaster, UniProt Q08605-2 1-519).
T3 sequence: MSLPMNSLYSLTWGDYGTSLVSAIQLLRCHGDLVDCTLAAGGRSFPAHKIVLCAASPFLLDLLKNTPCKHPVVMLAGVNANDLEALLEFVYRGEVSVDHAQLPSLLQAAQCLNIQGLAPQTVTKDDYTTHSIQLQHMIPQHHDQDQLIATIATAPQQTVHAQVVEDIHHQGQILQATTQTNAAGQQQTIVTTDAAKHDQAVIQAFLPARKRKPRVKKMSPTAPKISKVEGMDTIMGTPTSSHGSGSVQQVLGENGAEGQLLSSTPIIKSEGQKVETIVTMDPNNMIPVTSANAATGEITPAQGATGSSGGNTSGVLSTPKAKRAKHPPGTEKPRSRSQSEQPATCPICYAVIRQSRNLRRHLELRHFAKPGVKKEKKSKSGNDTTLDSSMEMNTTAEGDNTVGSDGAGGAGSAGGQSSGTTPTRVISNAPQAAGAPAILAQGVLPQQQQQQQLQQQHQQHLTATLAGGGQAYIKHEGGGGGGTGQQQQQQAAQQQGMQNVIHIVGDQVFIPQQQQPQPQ
As to the kind of experiment: EMSA; 3 nM DNA; 12.5 mM HEPES-KOH pH 7.6, 0.05 mM EDTA, 6.25 mM MgCl2, 5% glycerol, 50 mM NaCl, 50 ug/ml BSA, 0.05% NP-40; EMSA at room temperature; smFRET adds dextrose, Trolox, glucose oxidase, catalase. The following applies: protein: recombinant; tags: N-terminal HA; chain copies: 6; label: Cy5 at end.

In the case of “GTGTCATTTGTTTGGCAGAAAGAAAACTCGAGAAATTTCTCTGGCCGTTATTCTCTATTCGTTTTGTGACTCTCCCTCTCTGTACTATTGCTCTCTCACTCTGTCGCACAGTAAACGGCACACTGTTCTCGTTGCTTCGAGAGAGCGCGCCTCGAA (double strand) [hsp70 NCP (3-N-6 nucleosome)]”, the binding signal (fold less bound than free DNA) in data set [1] was determined as 2. In turn, “GTGTCATTTGTTTGGCAGAAAGAAAACTCGAGAAATTTCTCTGGCCGTTATTCTCTATTCGTTTTGTGACTCTCCCTCTCTGTACTATTGCTCTCTCACTCTGTCGCACAGTAAACGGCACACTGTTCTCGTTGCTTCGAGAGAGCGCGCCTCGAA (double strand) [hsp70 NCP DNA (free, 3-N-6)]” showed a K half in data set [2] of 12 nM. “GTTTTGTGAGTACGCGCTGTTGTACTATTGTTAACCCACAAGGTCGCACAGTAAACGGCACACTGTACGTGTTGCTTCGAGAGAGCGCGC (double strand) [Cy5-cognate DNA 90 bp]” had a Kd in data set [3] of 11.5 nM. In data set [4], “SNAP-tagged full-length GAGA factor (MBP–SNAP–GAF–6×His) (natural protein)” had a stoichiometry N of 8.

B1: hsp70 NCP DNA (free, 3-N-6) (dsDNA)
DNA 1: GTGTCATTTGTTTGGCAGAAAGAAAACTCGAGAAATTTCTCTGGCCGTTATTCTCTATTCGTTTTGTGACTCTCCCTCTCTGTACTATTGCTCTCTCACTCTGTCGCACAGTAAACGGCACACTGTTCTCGTTGCTTCGAGAGAGCGCGCCTCGAA
DNA 2: TTCGAGGCGCGCTCTCTCGAAGCAACGAGAACAGTGTGCCGTTTACTGTGCGACAGAGTGAGAGAGCAATAGTACAGAGAGGGAGAGTCACAAAACGAATAGAGAATAACGGCCAGAGAAATTTCTCGAGTTTTCTTTCTGCCAAACAAATGACAC
As to B1, the binding result in data set [5] is listed as “binds”.
